Assay [1] addresses T1, CBP80/CBP20 complex (human, UniProt Q09161 20-790; P52298 1-156, limits assumed).
T1 construct: Used in the fluorescence polarization assays; In the crystal it also carried the cap analogue (m7GpppG / m7GpppA); also called CBC complex; CBC
T1 sequence (looked up) 1: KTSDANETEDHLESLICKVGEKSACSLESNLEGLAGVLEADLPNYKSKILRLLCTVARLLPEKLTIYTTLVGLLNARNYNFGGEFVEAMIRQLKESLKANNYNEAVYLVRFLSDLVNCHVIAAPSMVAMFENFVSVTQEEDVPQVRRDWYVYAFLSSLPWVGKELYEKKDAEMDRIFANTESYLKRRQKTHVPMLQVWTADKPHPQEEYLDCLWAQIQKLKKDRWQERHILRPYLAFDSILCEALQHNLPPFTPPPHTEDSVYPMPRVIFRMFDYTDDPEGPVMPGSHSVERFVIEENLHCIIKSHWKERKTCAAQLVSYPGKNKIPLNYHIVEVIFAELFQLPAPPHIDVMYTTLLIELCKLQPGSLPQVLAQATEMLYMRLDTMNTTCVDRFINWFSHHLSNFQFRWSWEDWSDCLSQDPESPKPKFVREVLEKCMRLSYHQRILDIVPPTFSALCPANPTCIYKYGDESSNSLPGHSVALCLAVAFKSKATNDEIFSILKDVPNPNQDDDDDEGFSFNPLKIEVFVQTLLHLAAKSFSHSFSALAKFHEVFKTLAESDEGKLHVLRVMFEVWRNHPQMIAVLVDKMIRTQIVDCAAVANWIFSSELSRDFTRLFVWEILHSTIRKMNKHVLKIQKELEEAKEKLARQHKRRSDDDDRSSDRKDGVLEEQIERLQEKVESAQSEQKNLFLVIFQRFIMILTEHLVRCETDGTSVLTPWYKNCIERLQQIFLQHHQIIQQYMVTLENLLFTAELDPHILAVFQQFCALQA
T1 sequence (looked up) 2: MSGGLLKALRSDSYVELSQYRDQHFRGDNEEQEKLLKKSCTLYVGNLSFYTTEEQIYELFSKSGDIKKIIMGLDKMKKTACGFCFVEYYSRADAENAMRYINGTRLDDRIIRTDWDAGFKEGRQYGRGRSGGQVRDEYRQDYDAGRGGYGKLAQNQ
Kind of assay: FP competition assay; 1 µM FITC-Ahx-…-NH2 as competitor, 30 µM CBP80/CBP20 complex. How it is done: (§1) The relative activity of the PGC1β mimics toward disrupting the interaction between CBC and the fluorescein-conjugated PGC1β-derived peptide was measured in a competition assay. Briefly, a fixed amount of CBC and fluorescein-conjugated PGC1β-derived peptide are incubated with increasing amounts of the PGC1β mimic (FIG. 11A). From the resulting dose-dependent inhibition curves, the in vitro CBC inhibitory activity of the PGC1β mimic compound is measured based on their respective half-maximal inhibitory concentration (IC₅₀) (FIG. 5B). Using this assay, various PGC1β mimics were evaluated for their relative ability to target CBC and disrupt its binding interaction with PGC1β. […] Short peptides derived from the C-terminal domain of PGC1β and PRC proteins, two other members of the PGC1 family of transcriptional coactivators, were also to bind CBC and inhibits its interaction with the fluorescein-labeled PGC1β peptide with IC₅₀ values in the low micromolar range.
^aAc = acetyl; Biot = biotin; Ahx = 6-aminohexanoic acid; Aib = 2-aminoisobutyric acid; CrtDab = N^γ-crotonyl-2,4-diaminobutyric acid. C-terminal ‘-NH₂’ refers to amidated C-terminal end of the peptide. ^bIC₅₀ was determined using fluorescence polarization based competition assay in the presence of 1 μM of FITC-labeled PGC1β (FITC-Ahx-[…]-NH₂, where FITC is fluorescein-isothiocyanate) and 30 μM of the CBP80/CBP20 complex in HEPES buffer (10 mM HEPES, 50 mM NaCl, 5 mM BME, pH 7.5).
(§2) IC₅₀ values were determined by adapting the fluorescence polarization assay described above to a competition format. 1 μM of the FITC-labeled PGC1β peptide (FITC-Ahx-[…]-NH₂) was incubated with 30 μM of the CBP80-CBP20 complex in HEPES Buffer (10 mM HEPES [pH 7.5], 50 mM NaCl and 5 mM 2-mercaptoethanol).

For assay [2], the target named is T1, CBP80/CBP20 complex. Put plainly: FP competition assay, alanine scan. The protocol:
To examine the tolerance of this compound to sequence modification, an alanine-scanning library was synthesized. This library of PGC1β mimics consisted of 11 linear peptides (PGC1β-2A through PGC1β-12A; Table 3), in which each amino acid residue of the parent PGC1β-wt peptide was replaced with alanine (or with glycine, when the parent residue is alanine). The peptides were tested for their ability to inhibit the CBC-PGC1β interaction using the aforementioned fluorescence polarization-based competition assay. […] These compounds include PGC1β mimics containing non-canonical amino acids such as 2-aminoisobutyric acid (Aib) and […]-crotonyl-2,4-diaminobutyric acid (CrtDab). Aib is an α,α-disubstituted amino acid which is well known for its ability to stabilize α-helical peptide structures as well as increase peptide stability against proteolysis.
as §2

Assay [3] deals with T1, CBP80/CBP20 complex. Put plainly: FP competition assay; FITC-labeled PGC1β peptide as competitor. How it is done:
as §1
IC₅₀ values were determined by adapting the fluorescence polarization assay described above to a competition format. […] Half-maximal inhibitory concentration (IC₅₀) values were calculated from the resulting inhibition curves as given by dose-dependent decrease in the fluorescence polarization signal. […]

The next assay concerns the target T2, FLAG-PGC1α WT (human, UniProt Q9UBK2 1-798).
T2 construct: also called FLAG-tagged human (h) PGC1α wild-type; FLAG-PCG1α WT; not shown: FLAG tag
T2 sequence (looked up): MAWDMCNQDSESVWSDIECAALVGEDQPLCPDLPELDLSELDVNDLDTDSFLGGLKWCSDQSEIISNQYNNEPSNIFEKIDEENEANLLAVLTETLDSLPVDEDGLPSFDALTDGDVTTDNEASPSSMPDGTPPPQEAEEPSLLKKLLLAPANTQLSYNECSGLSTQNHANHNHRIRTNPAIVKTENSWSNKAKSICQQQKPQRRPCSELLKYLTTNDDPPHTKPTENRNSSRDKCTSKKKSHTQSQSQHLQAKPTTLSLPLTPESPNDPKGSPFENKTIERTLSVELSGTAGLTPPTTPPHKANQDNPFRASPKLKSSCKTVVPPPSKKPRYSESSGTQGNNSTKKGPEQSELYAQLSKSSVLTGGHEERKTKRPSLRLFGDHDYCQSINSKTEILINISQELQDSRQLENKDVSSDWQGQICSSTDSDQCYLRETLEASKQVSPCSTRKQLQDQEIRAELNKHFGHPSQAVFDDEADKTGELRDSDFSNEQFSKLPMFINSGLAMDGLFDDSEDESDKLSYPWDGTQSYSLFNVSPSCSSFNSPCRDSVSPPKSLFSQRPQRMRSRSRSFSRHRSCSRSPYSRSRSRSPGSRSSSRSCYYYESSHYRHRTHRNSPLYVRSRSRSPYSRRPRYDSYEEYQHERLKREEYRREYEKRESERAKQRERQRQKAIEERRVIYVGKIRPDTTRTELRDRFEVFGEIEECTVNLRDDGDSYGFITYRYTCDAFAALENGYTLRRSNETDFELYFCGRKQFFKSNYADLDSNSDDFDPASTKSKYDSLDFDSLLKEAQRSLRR
Put plainly: anti-FLAG IP from C2C12 knock-down cells, western blot. (In general: Immunoblotting shows a protein as a band on a membrane.)

Assay [4] has as its target T1, CBP80/CBP20 complex. Put plainly: fluorescence polarization; 1 µM FITC peptide titrated with CBC complex (1-80 µM), 1:1 model. The protocol:
In order to develop a first set of PGC1β mimics, a series of linear peptides encompassing the CBP80-binding domain of PGC1β were designed and synthesized (Table 3). The ability of these peptides to bind to CBP80 in complex with CBP20 (also referred herein as ‘CBC complex’ or simply ‘CBC’) was assessed using a fluorescence polarization assay in the presence of fluorescein-conjugated PGC1β-derived peptide (FITC-Ahx-[…]-NH₂ (SEQ ID NO:XX), where FITC is fluorescein-isothiocyanate and Ahx is 6-aminohexanoic acid).
The assay was performed in a 15-μl scale in a low-volume 384-well black plate on a Tecan M1000 Plate Reader using 470/20 nm excitation and 520/20 nm emission filters. All proteins and peptides were dissolved and diluted in HEPES buffer (50 mM NaCl, 10 mM HEPES […]). Fluorescently labelled PGC1β peptide (FITC-Ahx-[…]-NH₂) was used at 1 μM final concentration, and fluorescence polarization data were recorded at increasing concentration of the CBC complex (1-80 μM) after a 10-min incubation. The resulting concentration-dependent FP curve was fit to a 1:1 binding model to yield dissociation constant (KD) values. Measurements were performed at least in duplicates.

Primed or numbered codes have the meaning given here. * marks the point of attachment. Biotin = O=C1N[C@H]2[C@H](CS[C@H]2CCCCC(=O)*)N1; FITC′ = fluorescein-isothiocyanate; Ahx = NCCCCCC(=O)O

Experimental findings from patent publication US20180362587A1, “Compositions and Methods for Inhibiting CBP80 Binding to PGC1 Family of Co-Activators” (University of Rochester, priority 2015, published 2018) are described below.

A word on the IC50: it is the concentration at which inhibition is half-maximal. Lower therefore signals greater potency in that assay. The Kd is the constant that tells how readily two partners part at equilibrium. A low value points to a tighter complex.

As to Ac-MDFDSLLKAAQQS-NH2 [PGC1β-9A (Ac-MDFDSLLKAAQQS-NH2)], the IC50 in the assay with CBP80/CBP20 complex [1] is 33 µM. Moreover, the “fold improvement of inhibitory activity against PGC1β-wt” value with CBP80/CBP20 complex [2] is at most 2 fold.

B1: Biot-PGC1β (Biot-Ahx-SGG-AMDFDSLLKEAQQSLH-NH2) (peptide)
peptide: {Biotin-Ahx}-SGGAMDFDSLLKEAQQSLH-NH2
SMILES: CSCC[C@H](NC(=O)[C@H](C)NC(=O)CNC(=O)CNC(=O)[C@H](CO)NC(=O)CCCCCNC(=O)CCCC[C@@H]1SC[C@@H]2NC(=O)N[C@@H]21)C(=O)N[C@@H](CC(=O)O)C(=O)N[C@@H](Cc1ccccc1)C(=O)N[C@@H](CC(=O)O)C(=O)N[C@@H](CO)C(=O)N[C@@H](CC(C)C)C(=O)N[C@@H](CC(C)C)C(=O)N[C@@H](CCCCN)C(=O)N[C@@H](CCC(=O)O)C(=O)N[C@@H](C)C(=O)N[C@@H](CCC(N)=O)C(=O)N[C@@H](CCC(N)=O)C(=O)N[C@@H](CO)C(=O)N[C@@H](CC(C)C)C(=O)N[C@@H](Cc1c[nH]cn1)C(N)=O
notes: also called Biot-PGC1β peptide; biotinylated version of the PGC1β peptide
For the molecule B1, the IC50 with CBP80/CBP20 complex [1] was 35 µM; with CBP80/CBP20 complex [3], 31 µM.

B2: endogenous CBP80 of mouse C2C12 myoblasts (other, UniProt Q3UYV9 1-790, looked up)
chain: MSRRRHSYENDGGQPHKRRKTSDANETEDHLESLICKVGEKSACSLESNLEGLAGVLEADLPNYKSKILRLLCTVARLLPEKLTIYTTLVGLLNARNYNFGGEFVEAMIRQLKESLKANNYNEAVYLVRFLSDLVNCHVIAAPSMVAMFENFVSVTQEEDVPQVRRDWYVYAFLSSLPWVGKELYEKKDAEMDRIFSTTESYLKRRQKTHVPMLQVWTADKPHPQEEYLDCLWAQIQKLKKDRWQERHILRPYLAFDSILCEALQHNLPPFTPPPHTEDSVYPMPRVIFRMFDYTDDPEGPVMPGSHSVERFVIEENLHCIIKSYWKERKTCAAQLVSYPGKNKIPLNYHIVEVIFAELFQLPAPPHIDVMYTTLLIELCKLQPGSLPQVLAQATEMLYMRLDTMSTTCVDRFINWFSHHLSNFQFRWSWEDWSDCLTQDLESPKPKFVREVLEKCMRLSYHQHILDIVPPTFSALCPANPTCIYKYGDESSNSLPGHSVALCLSVAFKSKATNDEIFSILKDVPNPNQVDDDDEGFRFNPLKIEVFVQTLLHLAAKSFSHSFSALAKFHEVFKTLAESDKGKLHVLRVMFEVWRNHPQMIAVLVDKMIRTQIVDCAAVANWIFSSELSRDFTRLFVWEILHSTIRKMNKHVLKIQKELEEAKEKLARQHKRRSDDDDRSSDRKDGALEEQIERLQEKVEAAQSEQKNLFLVIFQRFIMILTEHLVRCETDGTSILTPWYKNCIERLQQIFLQHHQTIQQYMVTLENLLFTAELDPHILAVFQQFCALQA
Regarding B2, the binding result with FLAG-PGC1α WT is “binds”.

B3: FITC-Ahx-AMDFDSLLKEAQQSLH-NH2 (peptide)
peptide: {FITC′-Ahx}-AMDFDSLLKEAQQSLH-NH2
notes: Tracer of the FP assays; also called fluorescein-conjugated PGC1β-derived peptide; FITC-labeled PGC1β peptide
Take B3: the Kd with CBP80/CBP20 complex [4] is 47 µM.
